6 molecules from patent US20240383974A1 (BETTA PHARMACEUTICALS, published 2024) can be followed below.

Read-outs that look alike come from different tables or passages of the source.

Experiment [1] addresses T1, GARP (CHO-K1-GARP cell line that overexpresses GARP) (UniProt Q14392 20-662, limits assumed).
T1 construct: whole, on cells; also called GARP protein
T1 sequence (looked up): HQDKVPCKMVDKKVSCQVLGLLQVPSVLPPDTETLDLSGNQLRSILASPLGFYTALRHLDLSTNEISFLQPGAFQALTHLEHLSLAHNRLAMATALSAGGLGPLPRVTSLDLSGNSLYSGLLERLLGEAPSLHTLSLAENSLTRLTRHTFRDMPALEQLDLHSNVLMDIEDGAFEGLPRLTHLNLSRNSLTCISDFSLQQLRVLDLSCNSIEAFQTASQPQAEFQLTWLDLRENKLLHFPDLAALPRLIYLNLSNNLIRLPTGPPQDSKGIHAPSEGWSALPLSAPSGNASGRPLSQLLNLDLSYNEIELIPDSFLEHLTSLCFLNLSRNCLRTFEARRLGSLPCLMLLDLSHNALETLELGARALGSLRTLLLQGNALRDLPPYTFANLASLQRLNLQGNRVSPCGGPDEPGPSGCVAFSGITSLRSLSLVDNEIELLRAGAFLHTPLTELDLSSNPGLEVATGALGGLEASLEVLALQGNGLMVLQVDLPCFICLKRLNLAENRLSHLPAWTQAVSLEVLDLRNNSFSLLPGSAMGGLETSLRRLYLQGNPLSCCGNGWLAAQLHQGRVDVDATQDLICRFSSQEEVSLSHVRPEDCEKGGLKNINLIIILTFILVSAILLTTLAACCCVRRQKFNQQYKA
Put plainly: FACS on CHO-K1-GARP cells.

Experiment [2] deals with T2, GARP-TGF-β complex (293-GARP/TGFβ stably transfected cells) (UniProt Q14392 20-662; P01137 30-390).
T2 construct: whole, on cells; Complex of GARP and (latent) TGF-β on the cell surface; also called 293-GARP/TGFβ cell; 293F-GAPR/TGFβ/αvβ6 cells
Put plainly: FACS on 293-GARP/TGFβ cells.

The target of experiment [3] is T3, human transforming growth factor β1 (human, UniProt P01137 279-390).
T3 construct: Coated on the ELISA plate at 100 ng/well; also called hTGF-β1; TGF-β
The experiment can be described thus: ELISA, plate-coated hTGF-β1.

In experiment [4] the target is T2, GARP-TGF-β complex (293-GARP/TGFβ …). The experiment can be described thus: cell-based or functional assay.
For experiment [5], the target named is T4, human PD-L1 (human, UniProt Q9NZQ7 19-290). The experiment can be described thus: cell-based or functional assay.
Experiment [6] concerns the target T4, human PD-L1. The experiment can be described thus: FACS on MC38-hPD-L1 cells.
In experiment [7] the target is T2, GARP-TGF-β complex (293-GARP/TGFβ …). Put plainly: FACS on 293-GARP/TGFβ cells. The source holds these as a separate data set.

T4 sequence (Q9NZQ7 19-290): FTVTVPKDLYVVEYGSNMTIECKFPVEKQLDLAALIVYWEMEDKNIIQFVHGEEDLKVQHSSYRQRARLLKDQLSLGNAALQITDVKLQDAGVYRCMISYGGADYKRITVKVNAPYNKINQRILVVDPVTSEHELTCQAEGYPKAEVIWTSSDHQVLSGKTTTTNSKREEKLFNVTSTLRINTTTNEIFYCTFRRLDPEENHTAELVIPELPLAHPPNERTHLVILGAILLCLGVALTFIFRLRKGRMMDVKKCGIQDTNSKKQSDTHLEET
T3 sequence (P01137 279-390 limits assumed): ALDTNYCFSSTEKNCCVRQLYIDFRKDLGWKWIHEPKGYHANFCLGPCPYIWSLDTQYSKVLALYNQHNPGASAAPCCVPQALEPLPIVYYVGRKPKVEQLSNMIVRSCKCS

B1: antibody m107 (antibody, V domains shown)
VH: QVHLQQSGAALARPGASVKMSCKASGYTFSAYTIHWVKQRPGQGLEWIGYINPSNDFAKYIQKFKDKATLTADKSSSTAYMQLNSLTSEDSAIYYCARVDYYGGSYRWYLDVWGAGTTVTVSS
VL: DIVLTQSPATLSVTPGDSVSLSCRASQSISNNLHWYQQKSHESPRLLIKYTSQSISGIPSRFSGSGSGTDFTLSINSVETEDFGMYFCQQSNSWPIFTFGSGTKLEIK
Take B1: the EC50 in experiment [1] is > 2 nM; in experiment [2], 3.2 nM; in experiment [3] it was 0.021 nM.

B2: antibody m305 (antibody, V domains shown)
VH: EVQLQQSGPELVKPGASVKIPCKTSGYTFTDYNMNWVKQSHGKSLEWIGDINPYSGGTIYNQKFKGKAILTVDKSSSTAYMELRSLTSEDTGIYYCARVSKGSGDYWGQGTTLTVSS
VL: DIQMTQSPSSLSASLGERVSLTCRASQEISGYLSWLQQKPDGTIKRLIYAASTLDSGVPKRFSGSRSGSDYSLTISSLESEDFADYYCLQYASYPTCTFGGGTKLEIK
As to B2, the EC50 is < 1 nM in experiment [1] and 4.1 nM in experiment [2].

B3: b202-L-D2hu (bispecific antibody, human IgG1, kappa)
heavy: not shown
light: DIVLTQSPDSLAVSLGERATINCRASESVTIIGTNLIQWFQQKPGQPPKLLIYHASNLETGVPDRFSGSGSRTDFTLTISSLQAEDVAVYYCLQSRQIPRTFGGGTKVEIKRTVAAPSVFIFPPSDEQLKSGTASVVCLLNNFYPREAKVQWKVDNALQSGNSQESVTEQDSKDSTYSLSSTLTLSKADYEKHKVYACEVTHQGLSSPVTKSFNRGECGGGGSGGGGSGGGGSGGGGSEVQLVESGGGLVQPGGSLRLSCAASGRDFLTYGMGWFRQAPGKGLEFVASINWSGSMTYYADSVKGRFTISRDNAKNSVYLQMNSLRAEDTAVYICAARRGAVTYASSNEYEHWGQGTQVTVSS
notes: also called b202-hu-L-D2hu
With B3, the “IC50(nM), TGFβ reporter gene blocking (293F-GAPR/TGFβ/αvβ6 cells with 293-SBE-Luciferase cells)” value in experiment [4] was 1.7 nM. Further, the “IC50(nM), PD-1/PD-L1 NFAT-luciferase reporter (293T-hPD-L1 with Jurkat-PD1-CD3zeta-NFAT-Luc2 cells)” value with human PD-L1 [5] turned out to be 13 nM. In addition, the EC50 stood at 0.39 nM in the experiment with human PD-L1 [6] and 5.4 nM in experiment [7].

B4: antibody m301 (antibody, V domains shown)
VH: QVQLKESGPGLVAPSQSLSITCTVSGFSLTTYGVTWVRQPPGKGLQWLGLIWGDGTTDYHSTFISRLSISKDKSKNQVFFKLNSLQTDDTATYYCASYYFAMHYWGQGTSVTVSS
VL: DIVMSQSPSSLAVSAGEKVTMNCKSSQSLLNSRTQKNYLAWYQQKPGQSPKLLIYWASTRESGVPDRFTGSGSGTDFTLTIISVQAEDLAVYYCKQSYNLWTFGGGTKLEIK
As for B4, the half-maximal effective concentration (EC50) in experiment [2] was 2.5 nM; in experiment [3], < 1 nM.

B5: antibody m212 (antibody, V domains shown)
VH: QVQLQQPGPELVKPGASVKLTCKASGYIFTSYWMHWVKRGPGRGLEWIGRIAPNSGGAHYHEKFKTKVTLTVDKPSSTAYMEFSSLTSEDSAVYYCARGNYGMDYWGQGTAVTVSS
VL: DIQMTQTTSSLSASLGDRVTISCRASQDISNYLNWYQQKPDGTVELLIYYTSTLHSGVPSRFSGSGSGTDYSLTISNLEQEDIATYFCQQVNTLPFTFGSGTKLEII
notes: Hybridoma-derived, expressed in mammalian cells; hIgG1 and hIgG4 as controls
Regarding B5, the EC50 was 0.46 nM in experiment [1] and < 2 nM in experiment [2].

B6: b202-hu-H-D2hu (bispecific antibody, human IgG1, kappa)
heavy: not shown
light: DIVLTQSPDSLAVSLGERATINCRASESVTIIGTNLIQWFQQKPGQPPKLLIYHASNLETGVPDRFSGSGSRTDFTLTISSLQAEDVAVYYCLQSRQIPRTFGGGTKVEIKRTVAAPSVFIFPPSDEQLKSGTASVVCLLNNFYPREAKVQWKVDNALQSGNSQESVTEQDSKDSTYSLSSTLTLSKADYEKHKVYACEVTHQGLSSPVTKSFNRGEC
notes: also called b202-H-D2hu
For B6, the “IC50(nM), TGFβ reporter gene blocking (293F-GAPR/TGFβ/αvβ6 cells with 293-SBE-Luciferase cells)” value in experiment [4] came out at 4.9 nM. Besides, the “IC50(nM), PD-1/PD-L1 NFAT-luciferase reporter (293T-hPD-L1 with Jurkat-PD1-CD3zeta-NFAT-Luc2 cells)” value in the experiment with human PD-L1 [5] was 7.8 nM. Besides, the values for the EC50 (with human PD-L1 [6]; in experiment [7]) were 0.34 nM and 5.6 nM, respectively.

The term EC50 denotes the concentration at which the effect is half-maximal. Read a high EC50 as a less potent agent.
